Here are results for 2 molecules from patent US20230174651A1 (Janssen / Centocor, published 2023).

For experiment [1], the target named is T1, human CD8α on primary CD8+ T cells (human, UniProt P01732 22-235).
T1 construct: Endogenous CD8 on T cells from PBMC; also called CD8+ primary T cells; human primary CD8+ cells
As to the kind of experiment: flow cytometry on PBMC, 2 µg/mL mAb, positive cells among EM CD8 T cells, Donor 1. As for the experimental part: (§1) Frozen PBMCs were thawed and resuspended in FACS buffer (PBS+2% FBS). Cells were then incubated with Fc block for 15 min at 4 C prior to incubation with 2 μg/mL of each CD8α hinge binders at room temperature for 45 min. […] After staining, cells were washed with FACS buffer twice and resuspended in 100 μl PBS containing DAPI for acquisition. Cells were first gated on FSC/SSC, followed by live cell gating (DAPI negative cells) followed by singlet gating. CD3 T cells were identified using FSC versus CD3 dot plot. Within the CD3 T cells, CD4 and CD8 T cells were gated. Naïve, Effector, EM and CM cells were identified within the CD8 T cells using CD45RA and CD27 dot plot. Within each of the cell types, the secondary only control was used to set the gates to identify the positive stained population. The percentage of positive cells in CD8+ T cell population with binding to CD8α hinge binders were quantified and summarized in Table 13.

Experiment [2] concerns the target T2, soluble CAR extracellular domain (ECD) containing scFv and CD8α hinge (UniProt P01732 138-182, biotinylated).
T2 construct: domain: CD8α hinge; also called soluble CAR ECD; CAR ECD
Kind of experiment: BLI (OctetRed384), GC5W48-Btn loaded on streptavidin tip; row 'average'; the sheet puts this number under 'kon (1/Ms)', Table 14 of the text under 'kd (1/s)'. As for the experimental part: (§2) To determine the binding affinity and kinetics of mAbs to CD8α hinge, soluble CAR extracellular domains (ECD) containing scFv and CD8α hinge was generated for Bio-layer interferometry (BLI) analysis using OctetRed384 (Sartorius). The CAR ECD was biotinylated and loaded to streptavidin sensor tip. Then mAbs were associated to the sensor and followed by disassociation in the assay buffer. Data was analyzed by Octet software (Sartorius).

For experiment [3], the target named is T1, human CD8α on primary CD8+ T cells. Kind of experiment: flow cytometry on PBMC, 2 µg/mL mAb, positive cells among EMRA CD8 T cells, Donor 1. The procedure:
as §1

For experiment [4] the target is unchanged. As to the kind of experiment: flow cytometry on PBMC, 2 µg/mL mAb, positive cells among CD8+ T cells, Donor 2. The procedure: as §1
(Flow cytometry measures light scatter and fluorescence of single cells or particles in a stream.)

For experiment [5], the target named is T2, soluble CAR extracellular domain (ECD) …. As to the kind of experiment: BLI (OctetRed384), biotinylated CAR ECD on streptavidin tips; the cell stands under the head 'KD (M)' (heads shifted). The procedure: as §2
The target is the same in experiment [6]. As to the kind of experiment: BLI (OctetRed384), GC5W48-Btn (biotinylated CAR ECD) loaded on streptavidin tip, mAb in solution; second of two table rows. The procedure:
as §2

Experiment [7] deals with T3, CAR with CD8α hinge as the spacer, expressed on Jurkat CAR-T cells.
T3 construct: domain: CD8α hinge; also called CD8α hinge expressed on the Jurkat CAR-T cells
As to the kind of experiment: flow cytometry (iQue) on Jurkat CAR-T cells, A647 anti-human IgG Fc detection. As for the experimental part: mAbs were 1:3 serially diluted ranging from 100 nM to 1.7 pM and were incubated with cell mixture containing Jurkat CAR-T cells (unstained), Jurkat cells (CTV dye stained) and Sup-T1 cells (CSFE dye stained) in assay media (RPMI 1640+10% HI FBS+Pen/strep) for 1 hr at 37° C. […] Cells were then washed and analyzed by iQue screener (Intellicyt®). ForeCyt software was used for data analysis. The ratio of geomean of AF647 fluorescent signal from sample over the isotype control antibody (Signal) was used for the dose-dependent plot (FIGS. 2A-2F).

The target in experiment [8] is T2, soluble CAR extracellular domain (ECD) …. As to the kind of experiment: BLI (OctetRed384), biotinylated CAR ECD on streptavidin tips; the cell stands under the head 'kd (1/s)' (heads shifted). The procedure:
as §2

The target is the same in experiment [9]. As to the kind of experiment: BLI (OctetRed384), GC5W48-Btn loaded on streptavidin tip; row 'average'; the sheet puts this number under 'kdis (1/s)', Table 14 of the text under 'KD (M)'. As for the experimental part:
as §2

The target is the same in experiment [10]. As to the kind of experiment: BLI (OctetRed384), biotinylated CAR ECD on streptavidin tips; the cell stands under the head 'ka (1/Ms)' but the text gives 5.58 nM as the affinity (heads shifted). As for the experimental part:
as §2

The target is the same in experiment [11]. As to the kind of experiment: BLI (OctetRed384), GC5W48-Btn (biotinylated CAR ECD) loaded on streptavidin tip, mAb in solution; first of two table rows; column head 'kdis (1/s)'. The procedure:
as §2

Experiment [12] has the same target. Kind of experiment: BLI (OctetRed384), GC5W48-Btn (biotinylated CAR ECD) loaded on streptavidin tip, mAb in solution; first of two table rows. As for the experimental part: as §2
The target in experiment [13] is T1, human CD8α on primary CD8+ T cells. As to the kind of experiment: flow cytometry on PBMC, 2 µg/mL mAb, positive cells among EMRA CD8 T cells, Donor 2. The procedure:
as §1

In experiment [14] the target is T2, soluble CAR extracellular domain (ECD) …. Kind of experiment: BLI (OctetRed384), GC5W48-Btn (biotinylated CAR ECD) loaded on streptavidin tip, mAb in solution; second of two table rows; column head 'kdis (1/s)'. The procedure: as §2
The target of experiment [15] is T1, human CD8α on primary CD8+ T cells. Kind of experiment: flow cytometry on PBMC, 2 µg/mL mAb, positive cells among EM CD8 T cells, Donor 2. As for the experimental part:
as §1

Experiment [16] has the same target. Kind of experiment: flow cytometry on PBMC, 2 µg/mL mAb, positive cells among CD8+ T cells, Donor 1. As for the experimental part: as §1
For experiment [17], the target named is T2, soluble CAR extracellular domain (ECD) …. As to the kind of experiment: BLI (OctetRed384), biotinylated CAR ECD on streptavidin tips; the cell stands under the head 'ka (1/Ms)' but the text gives 1.83 nM as the affinity (heads shifted). The procedure:
as §2

T1 sequence (P01732 22-235): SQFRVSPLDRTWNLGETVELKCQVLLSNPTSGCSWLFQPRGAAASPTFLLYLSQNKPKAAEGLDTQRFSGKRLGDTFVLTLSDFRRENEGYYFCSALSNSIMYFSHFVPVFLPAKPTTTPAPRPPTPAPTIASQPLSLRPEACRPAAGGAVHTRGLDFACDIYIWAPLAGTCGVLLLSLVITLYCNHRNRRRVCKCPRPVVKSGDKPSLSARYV
T2 sequence (P01732 138-182): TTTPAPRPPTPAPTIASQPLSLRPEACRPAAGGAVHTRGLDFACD
T3 sequence (P01732 138-182): as above

B1: CD8B612 (antibody, human IgG1, kappa)
heavy: not shown
light: DIVMTQTPLSLPVSLGDQASISCRSSQNIVHSNGNTYLEWYLQKPGQSPKLLIYRVSKRFSGVPDRFSGSGSGTDFTLKITRVEAEDLGVYYCFQGSHVPWTFGGGTKLEIKRTVAAPSVFIFPPSDEQLKSGTASVVCLLNNFYPREAKVQWKVDNALQSGNSQESVTEQDSKDSTYSLSSTLTLSKADYEKHKVYACEVTHQGLSSPVTKSFNRGEC
notes: Mouse variable regions on human IgG1 / human kappa constant regions
Usually kon stands for a measure of how fast the partners come together. In general, koff refers to the first-order rate constant of dissociation. By Kd is commonly meant the concentration at which binding is half-saturated. As a reminder, the EC50 is the concentration that produces a half-maximal response. A higher EC50 goes with a less potent agent. Consider B1, for which the figures for the “Binding+ in EM (%)” value in experiment [1] and in [15] were 65.1% and 72.8%, respectively. For the same molecule, the kon amounted to 241000 M⁻¹ s⁻¹ in [2], 245000 M⁻¹ s⁻¹ in [6], 241000 M⁻¹ s⁻¹ in experiment [8] and 237000 M⁻¹ s⁻¹ in [12]. Moreover, the results for the “Binding+ in EMRA (%)” value in experiment [3] and in [13] were 67.6% and 7.67%, respectively. In addition, the entries for the “Binding in CD8+ cells (%)” value in [4] and in [16] were 32.9% and 71.6%, respectively. For the same molecule, the koff in experiment [5] amounted to 0.00135 s⁻¹; in experiment [9] it was 0.00135 s⁻¹; in experiment [11], 0.00114 s⁻¹; in experiment [14], 0.00156 s⁻¹. The dissociation constant Kd in [6] was 6.35 nM; in experiment [10], 5.58 nM; in [12], 4.81 nM. In experiment [7], this molecule showed a 50% effective concentration (EC50) of 2.9 nM.

B2: CD8B575 (antibody, human IgG1, kappa, V domains shown)
VH: QVQLQQSGGGLVQPGGSLKLSCAASGFTFSNYYMSWARQTPEKRLEWVAYISNDGDATYYPDSVKGRFTISRDNAKNTLYLQMSSLKSEDTAMYYCTREDYYSDYWFASWGQGTTVTVSS
VL: DIVMTQSQKFMSTTIEDRVSITCKASQNVGTAVAWYQQKPGQSPKLLIYSTSNRYTGVPDRFTGSGSGTDFTLTISNIQSEDLADYFCQQYSSYPLTFGGGTKLEIKR
notes: Mouse variable regions on human IgG1 / human kappa constant regions, made in CHO cells; also called AF647-CD8B575
Take B2: the “Binding+ in EM (%)” value was determined as 69.5% in experiment [1] and 77.9% in experiment [15]. In addition, the association rate constant (kon) is 68000 M⁻¹ s⁻¹ in [2], 46800 M⁻¹ s⁻¹ in experiment [6], 68000 M⁻¹ s⁻¹ in experiment [8] and 89100 M⁻¹ s⁻¹ in [12]. The “Binding+ in EMRA (%)” value in [3] is 81.3%; in [13], 92.8%. For the same molecule, the “Binding in CD8+ cells (%)” value in experiment [4] worked out at 96.4%; in [16], 84.4%. The figures for the Kd in experiment [17], in experiment [6] and in experiment [12] were 1.83 nM, 1.65 nM and 2.01 nM, respectively. For the same molecule, the koff in experiment [5] came to 0.000128 s⁻¹; in experiment [9], 0.000128 s⁻¹; in experiment [11], 0.000179 s⁻¹; in experiment [14], 7.72e-05 s⁻¹. The same molecule displayed a half-maximal effective concentration (EC50) in [7] of 32.6 nM.
